Data published in the DeepSol protein solubility set.

assay: soluble on expression in E. coli; label from the status in PepcDB or PDB records

| Sequence | soluble on expression in E. coli |
| --- | --- |
| MTPLQQAQLSPQEEAVFDGDAISGSGLRFSELTRPVNLLVMGMSVLPPDVQNPPTETQNLRYLPQVNSFDGLADVMLMVKFDPETKKIAMLSIPRDTRTRIEGHGVRKINAANVEGGPALTATTVSNLLGGVGIDRYIRINVLGVGKLIDALGGVTVYVPKDMKYQDHSQHLYINLKAGKQHLNGDQVLQLLRFRHDELGDIGRIQRQQMVMRALMDQALNPVTVAQLPKILNVVKDNIDTNLTVEELVALVGFGVRTNRTNMQMLMLPGRFSEPNEYNASYWIPSKNGIAKLMAQHFGLESLSENPVNDPTAVRVAIQDSTGSDRSQLRPLINALEKAGYRNVYVANAWTEPLEVTNIIAQQGDGNSAESIRNALGFGEVRVESTGSLNSDISIQVGKDWLQQKSLLEDSIKFLEHHHHHH | soluble |
| NDAIPTIFIHGYRGTDRSLHGMIRRFDQKYNWGTESLTVNVSPDGSISTTGTYSKNEKNPLINIVFEDNRATLPQQSMWTKKIMSYLQKNYDIKKFNAIGHSMGGGAWVSYLASYEKNKSYPQVNKIVFLAVPFYPEEYVNGDQQVDIKNANNVHAKFAQKMAKVLPDNTEIMIIGGDLEDGSNSDGEVKLNSVLYGQKLFAHQKVITHVIKGPKATHSSMHESTVVDKYVGQFLWG | not soluble |
| MSTDNLLQPKLIEATLGDYPVIQNMARFYVYDMSRYCGFISEEWTCPPDGLYESYDFKIYFTDPERKAFLIQIDNELAGFALLNKFGIQAVDWSMGEFFILAKFQGKGIGQSVAHQLWRTHPGEWEISVIPENIPALSFWRQAVMTYTLGRYKEQIKTVNYDIHQTQRIILSFNTQKQNKSCHSIPKKPITIDFVDNIPKSLEKKMTEDLIAYERTHGIDVNYKRFSIVLSEEGVTCGVINAFTAFAEIYIDDIWVDKAYRGKGYGKKLLQTLENHFKGQGFNNINLCTSAFQAPEFYRKCGYTAEFTRINQANPKLSKTFFVKFFDDENQTQGLF | soluble |
| MAHHHHHHMLRQSLLSLAKVYGAVPPLGAAQGHRLLHGKREREGSLFAVANDVKRDERLLRQQLNALLEEERMPMQARLQRSEAVSSHEAVPQTPLVDLPGVERRRDLPADPITRLFFQHKGDHALYYGTYDKPSVQDDDRVQIEKRVPRRREENLYTPIYDFCHRIREATEQRKRFVVVPSTIETRGCARVMHDHGLVAGFRDFHNDRAFAVELKYFQGDSTINVIEPCSYDGRTEFEWSPKMMRRLLNTHGIHNRLVVYICRTADNRIIDHIHAVKENIGGRGLMMVH | not soluble |
| MGSDKIHHHHHHMDVWLQLLQAEPELRSLTDWNRLATRYTDSPKYTARDASGVFIIHTAPLASLARKKREFELLQQLRHDGLPVPEPLDLKQISATAVCYSRYRFLTGKTIQACLPLCRDKAYRLGQETGRLLQWIHQHEVPRATEWAIRCLEKHKRYVALYQAERPLTDDSIILSFIERNIHLIAGRPNRLQHDDVHLGNLITDGEHLVGLIDFSNHDVGDPWHDFVKMGLFQVDDSIPFAVGQVDGYFARDVPELFWRVYSVYLAMACISSIVWTSRHAPEETDQMRRRFECAVPIWYATFDRT | not soluble |
| MVFVKTLHRTLFLEVAANEDVLSIKQKIEAAEGIPAEEQRLCYAGRQLEDSDCGIDSEATIYVNLELLGGAKKRKKKVYTTPKKNKRKPKKVKLAVLKYYKIDENGKITRLRKECQQPSCGGGVFMAQHANRHYCGRCHDTLVVDTATAAATSGEKGGKKGKK | not soluble |
| MAQFSIFPEQNSLQDLLNIHSVQEDTQYKSMGIYDLKTCEIPMRPPTHQNPAQKEHNTMEDEMMAVLNSFSRRIEIMSAPEPKAFRYYFEISPPPKPEAPKSQLGLGDLSEESYPLTPEPIQLDTCLTWSPVELQFDPFAEPEPIFYNEEMDSGPTPEPIPDIFESPRSEVEAVKMFRSEVIYEDFAEE | not soluble |
| MEYGVLSWWDYGNWIVYVGKRPAVSNNFQTGVEDSANFLLTDSEEEAKTIVEKLKVKYVMTDTLMAEGKFSSITSLAGKEIGEYYEVETVKGDTGLRTVATPKQALLQTQVYKLHKLDGTSLGHFRLVHESAVNSTDDGNSKENTVKVFEYVKGATLEHHHHHH | soluble |
| MGSDKIHHHHHHMMGGEFTLTEREAEYLFRIIDSSINIFRRHQFFLWAQGELQGLLPHGMLICLFDEGNGQAVNIERFSRTDMDEIRFSELCRPDGGIVFRAMSAWSAGKNQPLLVCPNNSHTPTYKRFSNDLKRENLQRIAAHGMFDTNGRTTCFFTFTQISAALSERHAYFLELLMPHMHMALVRMLFHERHHKQGAVGERSRKLITDRETEILRHVQAGKSNHEIAQLLYISPLTVKNHIQKILKKLDVNNRAHAVAKAMALKITL | not soluble |
| MSGREFLQKLLDGERVEWKALGEIIQLEKGRQLNKDLLSSSGRYPAYNGGMSYSGFTDSYNYSENKTIISQGGASAGFVNFVTTKFYANAHCYVVLPDTEVVDNRYIYHFLKLNEERLTSCQHGAGIPALRASEITSLKIPIPCPDNPKKSLAIQAEIVRILDAFTELTAELTAELTARKKQYAYYRDRLLTFTTPPYGHPSKGGELFSLFGHPSEGGELFTPYGHSVEERELNSPSLKGWQAQPDGVVPVEWKTLGEVGHFIRGSGIQKSDFKASGVGCIHYGQIHTHYGTWTTETKSFIDPEFANRLKKAKPGDLVIATTSEDDDAVAKAVAWIGTEDVAVSTDAYIFRHTANPKYMSYFFQTDMFQEQKKPYITGTKVRRISGDNLAKILIPIPPLAEQERIVAILDQFDALTNSLTEGLPREIELRQKQYAYYRDLLFSFPKASFGGVPEGRDQFPSFGGVPEGRGGLNALEHHHHHH | not soluble |
| AVPTVVGIPDGTAVVGRSFRVSIPTDLIASSGEIIKVSAAGKEALPSWLHWDPHSHILEGLPLDTDKGVHYISVSAARLGANGSHVPQTSSVFSIEVYPEDHNEPQSVRAASSDPGEVVPSACAADEPVTVLTVILDADLTKMTPKQRIDLLNRMQSFSEVELHNMKLVPVVNNRLFDMSAFMAGPGNAKKVVENGALLSWKLGCSLNQNSVPDIRGVETPAREGAMSAQLGYPVVGWHIANKKPT | soluble |
| MGSDKIHHHHHHMNSGPVSVACAQGSHGGDVVRLAARLGISPTDILDFSSNANSLCDDLTRQVLAQTGYAHSHYPDSECTGLRHRIAGFEETQPERILAGNGSSELIYLAMHSLKPRRVLLIAPVFSEYVRACQACGADYRLFETDPYDGFDIPERHICRLHDAVTAYRPDMAVICAPSNPACTDYSRMDDILYALDCPHVLVDNSYLDFLWGTPAYSRHGMAAYAGCTRTETKVISLRSMTKFFYCTGVRLGYCHADEQTIERMNRCKTPWSVWHAAQQAGMAFLDRMDEYRLRLPAMRAEKTAFAGALRNTGIFDNNLVLEGANFVTARLQRPAKAATVYTELLQHGILVRLCDNIPGMPQGFIRMQVREKKAWSRLTAILGTLDAE | not soluble |
| MSWWQDMDQRGGVSSPSGALASAEPAPASVTLAELLHLVQKGQEVPGLEKRHITATHGEPTASLLPRRPKPWEDAGSAASPCTIALDTRTQPPTIEERSRGSPAAQLDGGPRVS | soluble |
| SLQLESLISAAPALSQQAVDQEWSYMDFLEHLLHEEKLARHQRKQAMYTRMAAFPAVKTFEEYDFTFATGAPQKQLQSLRSLSFIERNENIVLLGPSGVGKTHLAIAMGYEAVRAGIKVRFTTAADLLLQLSTEQRQGRYKTTLQRGVMAPRLLIIDEIGYLPFSQEEAKLFFQVIAKRYEKSAMILTSNLPFGQWDQTFAGDAALTSAMLDRILHHSHVVQIKGESYRLRQKRKAGVIAEANP | not soluble |
| MKAMHVAQPAVVLASSRGIASFVCEYASPGKATEVRVTVLRQADSQVTEVCAATYMMGNELTFLDDSICTGTSSGNQVNLTIQGLRAMDTGLYICKVELMYPPPYYLGIGNGTQIYVIDPEPSPDSDLVPR | soluble |
| MGSDKIHHHHHHMKNSPLNGLNGLKAFLETKPKEYHKFDPSRFIQIYKDFKNAFFEIQAKVIHVVGTNGKGSTGRFLTLLLADQNFKVLHFTSPHVFEFRERFFLNGSVVGESVLENAHQQLQSHAFSSACSYFEYATLLAVMLAKDCDYLVLEAGLGGEFDSTNALKKTLSVFTPIDYDHKEFLGDSLESIAQTKLKAMGSLSIIAPQQELVLNAAQKIAKEKHAKLIVVQNEISKGVRDYIERYHLARFLAMNLEVALKAFETLLPCNKQEVLKNLKPLNLIGRCELLSPNILIDVGHNPHSAKALKEEIKRIFNAKIILIYNCYQDKDAFLVLEILKPVIKKVLILELHEERVIKLEKLKGILETLGLEYALFEDVEENENYLVYGSFLVANAFYKRYQEKRD | not soluble |
| MSLARNLKADKTKTIGVIVRDITGFDTSRTIRGVDDFCKGCDYNALIYNTDFDPETEAKSLEALYQMRVDGIIIASSGQNNTLISEYIDKGMPIVHFQLEHDGSEKNLILSDYRQAAFDATEYLIKLGHKRICFMTQDFKNVKSRNERYSGYVAALKKYDIVQDPALIQYWQRETGFDHSPKSVLESAAAPTAFFTQHLAITTELLTHLNQENITIPDDVSLIGFDDIPMAEFFKVPVTVIKQEPYIIGKEAAKLLLEKVNDKNRHSQKIMISCSITERQSCTEGHHHHHH | soluble |
| MNSQNSQKSSSFDDFAGQVVIYTEIGNSKCAKGRDLLHREGIPYTDVSLDSFPQHSQEIFDRTGTDVLPQIFFNNIYIGHETDLERVIGETNKWESLVEHVRREKCTNGGPIVPHPMNAIGFEEYETENNNKCCDEVLWVPDEYSKLVRDMKNAQLIKNNRVKLKVYRNSFKGEELVEWLMRQKGIKRSEALEIGQELIDRHVGQQTSKESGMTFSPDRYYQLVEDDENKPLNAGEDDGDKKQSFPVAECNEKFSKLLKPIFNDILTDDNQSIIYGGLSTNDNFTRYLQFSRELNHVTFEGSTSDDRLTFFINVYNMMLIHITLKHGPPIGIWQRRKLVNGTYYLIGGHRYALHSIINGILRGNKKGPGMLWKAFGKQDARLPISLAVCDPLIYFSLCSGSKTTPPLRVYHSKSIHQEMRENARQTLLRGDKFLRVDMKKNVIHLGKTFKWFSDDFGGSTEKILQWILDVLDTNESDKKHNLQKLFFTGEYSIEYIPYDWSTNGRMDEKEREDIDGGGGGGGDVRRTKTIE | not soluble |
| MREEFLEEIPLDAPPEEAKELRTEVMTLNVGPQHPSTHGVLRLMVTLSGEEVLEVVPHIGYLHTGFEKTMEHRTYLQNITYTPRMDYLHSFAHDLAYALAVEKLLGAVVPPRAETIRVILNELSRLASHLVFLGTGLLDLGALTPFFYAFRERETILDLFEWVTGQRFHHNYIRIGGVKEDLPEEFVPELKKLLEVLPHRIDEYEALFAESPIFYERARGVGVIPPEVAIDLGLTGGSLRASGVNYDVRKAYPYSGYETYTFDVPLGERGDVFDRMLVRIREMRESVKIIKQALERLEPGPVRDPNPQITPPPRHLLETSMEAVIYHFKHYTEGFHPPKGEVYVPTESARGELGYYIVSDGGSMPYRVKVRAPSFVNLQSLPYACKGEQVPDMVAIIASLDPVMGDVDR | soluble |
| MIYNKTINGLKVFIKDNDPFYEQVLNDFLTCRVKTLKVFRSIDDTKVILIDTARGPLVLKVYAPKHKMTERFLKSCIKKDYYENLIYQTDRVRGEGIQSINDYFLLAERKTLNFAHYYIMLIEYIEGVGLNEYLEISEDLKDQLSESIKELHQHGMVSGDPHKGNFIVSEKGLRLIDLSGKKTTAVLKAKDRIDLERHYNIKNELKDFGYTYLIFKKKIKKVIRDVKVKLGLKSKLEHHHHHH | not soluble |
